Source: the Human Domainome abundance scans (Beltran et al. 2025)

B1: Nucleosome-remodeling factor subunit BPTF, residues 2862 to 2918; numbered along this chain, Q12830 (parent)
chain: TKKDTKLYCICKTPYDESKFYIGCDRCQNWYHGRCVGILQSEAELIDEYVCPQCQST

Variants of: B1
Assay: abundance fitness (aPCA) (normalised: wild type 0, dead -1); higher = more abundant; growth selection in yeast, the domain comes from the species named
Details: Homo sapiens

Abundance fitness, by site and new letter:
W30: K 0.163; I -0.033; F 0.115; Y 0.083; L 0.127; A 0.09; C -0.123; R 0.142; N -0.159; P -0.155; H 0.004; D -0.097; M 0.037; S -0.009; T 0.095; G -0.116
K19: G -0.244; S -0.186; F -0.351; W -0.668; R 0.048; P -0.637; A -0.069; L -0.059; E 0.106; N 0.082; M -0.08; C -0.252; I -0.101; H 0.007; Y -0.286; D 0.044; Q -0.097; T -0.231; V -0.108
E17: V -0.289; D -0.013; G 0.055; T -0.2; H -0.168; M -0.131; Q -0.074; Y -0.294; C -0.288; N -0.172; W -0.412; S -0.065; L -0.172; K -0.013; F -0.052; P -0.153; A -0.042; R -0.304; I -0.155
T13: G -0.567; A -0.357; L -0.292; R -0.22; H -0.518; D -0.54; I -0.482; P -0.674; K -0.044; Q -0.116; C -0.577; N -0.297; M -0.176; S -0.116
R26: F -0.279; K -0.17; S 0.008; Q -0.203; G 0.041; E -0.087; P -0.207; V -0.18; T 0.067; W -0.278; Y -0.11; D -0.029; L -0.068; H 0.064; M -0.193; I 0.043; N 0.075
D16: V -0.315; R -0.515; K -0.452; Y -0.757; Q -0.182; H -0.55; W -0.778; G -0.564; T -0.366; S -0.362; P -0.622; A -0.441; L -0.555; N -0.181; C -0.449; I -0.624; M -0.194
N29: C -0.353; L -0.198; H -0.062; A 0.06; I -0.431; Q 0.089; R -0.061; K -0.124; T -0.191; G -0.068; F -0.307; S -0.047; E -0.328; V -0.064; M -0.1; Y -0.376
Q28: H 0.009; E -0.072; S 0.048; R -0.081; K 0.084; D -0.079; N -0.133; G -0.028; C 0.126; T -0.081; W -0.236; P -0.193; M -0.096; I -0.342; A -0.14; F -0.221
Y31: R -0.79; Q -0.706; K -0.649; W -0.527; N -0.573; M -0.412; V -0.341; D -1.01; F 0.01; C -0.206; T -0.723; H -0.592; G -0.804; P -0.787; S -0.693; L -0.279; E -0.772
C24: E -0.641; S -0.976; I -0.871; D -0.765; G -0.909; P -0.539; F -0.735; V -0.908; W -0.974; L -0.884; M -1.05; H -0.972; N -0.966; R -0.584; Y -0.894; A -1.02; T -0.933
H32: M -0.944; D -0.9; F -0.891; L -1.02; A -0.832; E -0.929; I -1; K -0.979; G -0.831
F20: T -0.009; S -0.11; N -0.044; D -0.062; R -0.149; G -0.226; M -0.149; A -0.161; L -0.193; E -0.002; P -0.001; W -0.083; K -0.192; I -0.244; C -0.346; Y -0.08; Q -0.104
Y15: C -0.505; W -0.118; S -0.539; I -0.073; A -0.366; N -0.593; G -0.492; T -0.303; F -0.02; D -0.438; E -0.489; M -0.005; H -0.106; Q -0.665; V -0.275; K -0.131; P -0.313
C27: M -0.816; N -0.674; V -0.803; T -0.871; Q -0.956; G -0.758; R -0.915; L -1.04; P -1.08; D -0.962; F -0.843; H -1.11; W -0.907; E -0.785; K -0.822; A -1.05; S -0.811; Y -0.844; I -1.15
I22: S -0.786; Y -0.617; V -0.038; L 0.015; Q -0.641; D -0.819; P -0.87; A -0.578; T -0.398; W -0.533; N -0.803; M -0.237; E -0.953; K -0.551; C -0.806; G -0.649; R -0.475; H -0.678; F -0.609
G23: V -0.223; F -0.139; N -0.133; M -0.016; D -0.085; C -0.007; I -0.546; R -0.126; P -0.297; K -0.13; W -0.177; T -0.021; A -0.099; Q -0.079; Y -0.031; S -0.085; H 0.029
Y21: L -0.245; M 0.118; Q -0.359; G -0.395; T -0.3; A 0.006; I -0.237; V -0.19; H -0.188; N -0.134; F -0.161; K -0.196; W -0.08; R -0.151; P -0.658; C -0.369; E -0.245
D25: T 0.056; Q 0.099; S 0.054; P -0.204; A -0.011; G -0.041; N 0; I -0.15; F -0.168; W -0.176; L -0.021; R 0.025; E 0.058; K 0.154; H -0.061
K12: Y -0.134
S18: Q -0.5; K -0.277; D -0.031; T -0.198; W -0.746; F -0.582; V -0.72; P -0.759; M -0.284; N -0.185; H -0.098; I -1.05; L -0.536; R -0.24; Y -0.37; G -0.087; A -0.217; C -0.366
P14: V -0.229; L -0.212; A 0.008; M -0.096; H -0.275; Y -0.131; S -0.161; W -0.447; E -0.163; N -0.191; I -0.216; C -0.367; G -0.42; D -0.581; Q -0.263; K -0.096; T -0.206
